Read-outs that look alike come from different tables or passages of the source.

One data set relates to CYV-VP3 (Culex Y virus). The data set is described as follows: competition.
The target in data set [1] is T1, DCV-1A (Drosophila C virus, UniProt O36966 1-97).
T1 sequence: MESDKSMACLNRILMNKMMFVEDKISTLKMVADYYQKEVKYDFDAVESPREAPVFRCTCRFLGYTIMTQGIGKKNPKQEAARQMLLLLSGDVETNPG
Description: single-molecule TIRF.

In data set [2] the target is T1, DCV-1A. The data set is described as follows: single-molecule TIRF. The source holds these as a separate data set.
In a further data set the target is Dcr-2;Loqs-PD (LqPD) (Drosophila melanogaster?;Drosophila …, UniProt A1ZAW0;Q9VJY9-4 1-1722;1-359, |). The data set is described as follows: single-molecule TIRF.
Data set [3] deals with T1, DCV-1A. Description: single-molecule TIRF. This is another data set of the same source.
Another data set addresses T2, DXV-VP3 (Drosophila X virus, UniProt Q96724 724-1032).
T2 sequence: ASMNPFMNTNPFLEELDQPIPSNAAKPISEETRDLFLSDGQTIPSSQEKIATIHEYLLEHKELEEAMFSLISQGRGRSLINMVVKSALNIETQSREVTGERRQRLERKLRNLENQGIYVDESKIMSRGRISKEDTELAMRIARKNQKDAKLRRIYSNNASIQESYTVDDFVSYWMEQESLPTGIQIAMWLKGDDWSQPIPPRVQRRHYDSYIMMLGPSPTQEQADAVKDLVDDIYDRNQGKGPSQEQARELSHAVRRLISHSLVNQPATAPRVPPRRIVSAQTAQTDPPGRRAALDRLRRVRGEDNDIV
Description: single-molecule TIRF.

As to “GGCAAUGAAAGAUCGCGGGUCUGCUCAAACACUCCGUUAUGUAGCAUUCCUUGAUCGUGAGAUUCUUCUU / AAGAAGAAUCUCACGAUCAAGGAAUGCUACAUAACGGAGUGUUUGAGCAGACCCGCGAUCUUUCAUUGCC [70-nt dsRNA blunt end]”, the binding signal in the data set on CYV-VP3 (Culex Y virus) amounted to 80 % inhibition.

B1: pre-let-7a-1 (2 mismatches) (structured_RNA)
RNA: UGAGGUAGUAGGUUGUAUAGUUUUAGGGUCACACCCACCACUGGGAGAUAACUAUACAAUCUACUGUCUUUCU
On to B1, for which the binding result with DCV-1A [1] is listed as “binds”.

B2: pre-miRNA (no mismatches) (structured_RNA)
RNA: UGAGACAGUAGGUUGUAUAGUUUUAGGGUCACACCCACCACUGGGAGAUAACUAUACAAUCUACUGUCUUUCU
As to B2, the binding result with DCV-1A [2] is on record as “binds”.

B3: 70-nt dsRNA blunt end (dsRNA)
RNA 1: GGCAAUGAAAGAUCGCGGGUCUGCUCAAACACUCCGUUAUGUAGCAUUCCUUGAUCGUGAGAUUCUUCUU
RNA 2: AAGAAGAAUCUCACGAUCAAGGAAUGCUACAUAACGGAGUGUUUGAGCAGACCCGCGAUCUUUCAUUGCC
Turning to B3, the binding result with Dcr-2;Loqs-PD (LqPD) is “binds”.

B4: 50-nt dsRNA (structured_RNA)
RNA: GGGACCUCAUCCAACAUAUCAAACUCCAUCAUCCAACAUAUCAAACUCCAGUCGAGUGGAGUUUGAUAUGUUGGAUGAUGGAGUUUGAUAUGUUGGAUGAGGUCCCAA
For B4, the binding result with DCV-1A [3] and in the data set with DXV-VP3 was “binds” throughout.

The record behind these values is PMC5888754.
